First the molecules themselves.
B1: VENTX (parent)
chain: VFQHHQYLSPLERKRLAREMQLSE
B2: ZNF511 (parent)
chain: FDALDDYEHHYHTLHGNVCSFCKR

For 94 variants, protein stability index results are on record in the supplement of paper PMC10567573.
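Further: lentivirally expressed fusions sorted by FACS into six bins by GFP to DsRed ratio, PSI derived from sequencing read proportions per bin multiplied by bin number.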

One data set covers variants of B1. Description: protein stability index of a GFP-peptide fusion (GPS, HEK-293T) (PSI 1-6); higher = more stable. As to conditions: c terminus: a fixed tail appended.
On to VFQAHQYLSPLERKRLAREMQLSE [H4A], for which the protein stability index amounted to 3.37.

For VFEHHQYLSPLERKRLAREMQLSE [Q3E], the protein stability index is 3.84.

Regarding VFMHHQYLSPLERKRLAREMQLSE [Q3M], the protein stability index came to 2.27.

For VFFHHQYLSPLERKRLAREMQLSE [Q3F], the protein stability index was 1.66.

In the case of VFIHHQYLSPLERKRLAREMQLSE [Q3I], the protein stability index amounted to 2.07.

On to VFCHHQYLSPLERKRLAREMQLSE [Q3C], for which the protein stability index came to 1.85.

VFWHHQYLSPLERKRLAREMQLSE [Q3W]: the protein stability index worked out at 1.79.

With VFTHHQYLSPLERKRLAREMQLSE [Q3T], the protein stability index was 2.96.

As for VFPHHQYLSPLERKRLAREMQLSE [Q3P], the protein stability index was determined as 2.98.

As for VFLHHQYLSPLERKRLAREMQLSE [Q3L], the protein stability index came out at 1.29.

As for VFKHHQYLSPLERKRLAREMQLSE [Q3K], the protein stability index worked out at 3.

As for VFDHHQYLSPLERKRLAREMQLSE [Q3D], the protein stability index was 4.04.

Turning to VFSHHQYLSPLERKRLAREMQLSE [Q3S], the protein stability index amounted to 3.81.

Regarding VFRHHQYLSPLERKRLAREMQLSE [Q3R], the protein stability index is 2.17.

Take VFAHHQYLSPLERKRLAREMQLSE [Q3A]: the protein stability index is 3.03.

Consider VFNHHQYLSPLERKRLAREMQLSE [Q3N], for which the protein stability index came to 3.05.

For the variant VFGHHQYLSPLERKRLAREMQLSE [Q3G], the protein stability index was 2.82.

For the variant VFHHHQYLSPLERKRLAREMQLSE [Q3H], the protein stability index was 2.11.

Regarding VFVHHQYLSPLERKRLAREMQLSE [Q3V], the protein stability index worked out at 2.78.

As for VFYHHQYLSPLERKRLAREMQLSE [Q3Y], the protein stability index stood at 2.56.

Turning to VFQHHQMLSPLERKRLAREMQLSE [Y7M], the protein stability index was determined as 3.04.

For VFQHHQKLSPLERKRLAREMQLSE [Y7K], the protein stability index came out at 2.71.

Turning to VFQHHQFLSPLERKRLAREMQLSE [Y7F], the protein stability index was 2.99.

As to VFQHHQDLSPLERKRLAREMQLSE [Y7D], the protein stability index was 3.84.

Take VFQHHQLLSPLERKRLAREMQLSE [Y7L]: the protein stability index was 2.5.

For the variant VFQHHQSLSPLERKRLAREMQLSE [Y7S], the protein stability index amounted to 2.68.

VFQHHQQLSPLERKRLAREMQLSE [Y7Q]: the protein stability index was 3.27.

For VFQHHQTLSPLERKRLAREMQLSE [Y7T], the protein stability index stood at 3.49.

For the variant VFQHHQPLSPLERKRLAREMQLSE [Y7P], the protein stability index was determined as 3.33.

As for VFQHHQILSPLERKRLAREMQLSE [Y7I], the protein stability index worked out at 2.54.

Turning to VFQHHQHLSPLERKRLAREMQLSE [Y7H], the protein stability index is 2.33.

For the variant VFQHHQWLSPLERKRLAREMQLSE [Y7W], the protein stability index was 2.11.

Regarding VFQHHQALSPLERKRLAREMQLSE [Y7A], the protein stability index is 2.98.

For the variant VFQHHQNLSPLERKRLAREMQLSE [Y7N], the protein stability index was 2.36.

Consider VFQHHQCLSPLERKRLAREMQLSE [Y7C], for which the protein stability index came to 2.5.

For VFQHHQRLSPLERKRLAREMQLSE [Y7R], the protein stability index was found to be 2.42.

Turning to VFQHHQELSPLERKRLAREMQLSE [Y7E], the protein stability index worked out at 3.22.

As for VFQHHQVLSPLERKRLAREMQLSE [Y7V], the protein stability index came out at 3.48.

Consider VFQHHQGLSPLERKRLAREMQLSE [Y7G], for which the protein stability index amounted to 2.34.

Another data set covers variants of B2. The description is as above. The note with it: c terminus: a fixed tail appended.
For the variant FDALDDYEHHYHTLHGDVCSFCKR [N17D], the protein stability index was 4.23.

Consider FDALDDYEHHYHTLHGGVCSFCKR [N17G], for which the protein stability index came to 3.64.

On to FDALDDYEHMYHTLHGNVCSFCKR [H10M], for which the protein stability index is 2.65.

On to FDALDDYEHHYHTLHGNVCSFCKM [R24M], for which the protein stability index amounted to 3.6.

Turning to FDALDDYEHHYHTLHGNVCSFCDR [K23D], the protein stability index was 3.45.

FDALDDYEHHYHTLHGNVCSFCSR [K23S]: the protein stability index came to 3.6.

In the case of FDVLDDYEHHYHTLHGNVCSFCKR [A3V], the protein stability index amounted to 3.59.

Take FDNLDDYEHHYHTLHGNVCSFCKR [A3N]: the protein stability index came to 3.63.

For the variant FDHLDDYEHHYHTLHGNVCSFCKR [A3H], the protein stability index was found to be 3.63.

As to FDSLDDYEHHYHTLHGNVCSFCKR [A3S], the protein stability index worked out at 3.77.

In the case of FDALDDYEHHYHTLHNNVCSFCKR [G16N], the protein stability index was 3.72.

With FDALDDYEHHYHTLHENVCSFCKR [G16E], the protein stability index came out at 3.75.

Consider FDALDDYEHHYHTLHQNVCSFCKR [G16Q], for which the protein stability index was 3.3.

FDALDCYEHHYHTLHGNVCSFCKR [D6C]: the protein stability index worked out at 4.28.

Turning to FDALDDYEHHYHTLHGNVCIFCKR [S20I], the protein stability index was determined as 3.83.

For the variant FDALDDYEHHYHTLHGNVCMFCKR [S20M], the protein stability index was 4.04.

On to FDALDDYEHHYHTLHGNVCEFCKR [S20E], for which the protein stability index is 4.44.

Consider FDALDDYEHHYHTLHGNVCDFCKR [S20D], for which the protein stability index turned out to be 2.75.

As to FDALDDYEHHYHTLHGNVCSLCKR [F21L], the protein stability index came to 4.01.

Regarding FDALDDYEHHYHTLHGNVCSYCKR [F21Y], the protein stability index amounted to 3.64.

As for FDALDDYEHHYHTLHGNVCSMCKR [F21M], the protein stability index stood at 3.71.

Turning to FTALDDYEHHYHTLHGNVCSFCKR [D2T], the protein stability index is 3.18.

Consider FQALDDYEHHYHTLHGNVCSFCKR [D2Q], for which the protein stability index was 2.93.

For FNALDDYEHHYHTLHGNVCSFCKR [D2N], the protein stability index stood at 3.06.

Turning to FVALDDYEHHYHTLHGNVCSFCKR [D2V], the protein stability index came to 2.06.

In the case of FKALDDYEHHYHTLHGNVCSFCKR [D2K], the protein stability index came out at 3.78.

For the variant FDALDDCEHHYHTLHGNVCSFCKR [Y7C], the protein stability index is 4.92.

As to FDALDDPEHHYHTLHGNVCSFCKR [Y7P], the protein stability index stood at 3.97.

Regarding FDALDDYEHHVHTLHGNVCSFCKR [Y11V], the protein stability index is 4.49.

For FDALDDYEHHRHTLHGNVCSFCKR [Y11R], the protein stability index was determined as 4.61.

Turning to FDAIDDYEHHYHTLHGNVCSFCKR [L4I], the protein stability index worked out at 3.56.

Regarding FDAPDDYEHHYHTLHGNVCSFCKR [L4P], the protein stability index turned out to be 3.54.

For FDATDDYEHHYHTLHGNVCSFCKR [L4T], the protein stability index was determined as 4.44.

FDAYDDYEHHYHTLHGNVCSFCKR [L4Y]: the protein stability index worked out at 3.16.

For FDALDDYEHHYHTLCGNVCSFCKR [H15C], the protein stability index came out at 3.89.

Take FDALDDYEHHYHTLFGNVCSFCKR [H15F]: the protein stability index turned out to be 2.26.

With FDALDDYEHHYHTLHGNACSFCKR [V18A], the protein stability index is 3.7.

As to FDALDDYEHHYHTLHGNCCSFCKR [V18C], the protein stability index stood at 3.66.

Consider NDALDDYEHHYHTLHGNVCSFCKR [F1N], for which the protein stability index is 4.75.

Regarding FDALDDYEHHYHTLHGNVISFCKR [C19I], the protein stability index came out at 2.66.

Take FDALDDYEHHYHTVHGNVCSFCKR [L14V]: the protein stability index turned out to be 4.53.

With FDALDDYEHHYHTKHGNVCSFCKR [L14K], the protein stability index is 3.54.

For FDALDDYEHHYHILHGNVCSFCKR [T13I], the protein stability index was 3.19.

Consider FDALDDYEHHYHHLHGNVCSFCKR [T13H], for which the protein stability index was 4.17.

In the case of FDALDDYTHHYHTLHGNVCSFCKR [E8T], the protein stability index worked out at 3.67.

Take FDALDDYFHHYHTLHGNVCSFCKR [E8F]: the protein stability index amounted to 2.57.

Consider FDALDDYQHHYHTLHGNVCSFCKR [E8Q], for which the protein stability index came to 3.63.

As for FDALDDYEHHYPTLHGNVCSFCKR [H12P], the protein stability index is 3.31.

For the variant FDALDDYEHHYFTLHGNVCSFCKR [H12F], the protein stability index is 2.9.

With FDALFDYEHHYHTLHGNVCSFCKR [D5F], the protein stability index amounted to 2.5.

Consider FDALLDYEHHYHTLHGNVCSFCKR [D5L], for which the protein stability index turned out to be 3.18.

With FDALHDYEHHYHTLHGNVCSFCKR [D5H], the protein stability index is 3.9.

With FDALDDYEWHYHTLHGNVCSFCKR [H9W], the protein stability index came to 2.67.

As to FDALDDYETHYHTLHGNVCSFCKR [H9T], the protein stability index worked out at 3.47.

In the case of FDALDDYELHYHTLHGNVCSFCKR [H9L], the protein stability index came out at 2.86.
